# In the nanobody polyreactivity screen of Harvey et al. (2022):
# Assay: yeast display, Sf9 membrane polyspecificity reagent, FACS + sequencing; frameworks hold sequencing errors
# Summary of the method: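 Nanobodies came from a synthetic yeast display library in Saccharomyces cerevisiae BJ5465, induced with galactose for 36–48 hours and stained for 1 hour at 4 °C with 10% biotinylated, detergent-solubilized Sf9 membrane reagent. Cells were enriched on streptavidin microbeads and then FACS-sorted, with low and high (top ~1%) gates set on anti-HA fluorescence for expression and streptavidin fluorescence for reagent binding. Each polyreactivity label reflects the gate a clone came from. Genes were amplified by colony PCR, sequenced by MiSeq 2 × 250 and filtered by CDR length.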
row,Sequence,polyreactivity (PSR sort gate)
1,QVQLVESGGGLVQAGGSLRLSCAASGRTFRLNAMGWYRQAPGKERELVAAITLGGGRTYYADSVKGRFTISRDNAKNTVYLQMNSLKPEDTAVYYCNKVKRSYYYVDTDYWGQGTQVTVSS,high polyreactivity
2,QVQLVESGGGLDQAGGSLRLSCAASGIIFVKYTMGWYIQAPGKERELDAAISRSGGSTYYADSVKGRFTISRDNAKYTVYLQMNSLKPEDTAVYYCNAGARKVYPGPMDYWGQGTQVTVSS,high polyreactivity
3,QVQLVESGGGLDQAGGSLRLSCAASGSTFYYYAMGWYRQAPGKERELVATISSGSSTNYADSVKGRFTISRDNAKNTVYLQMNCLKPEDTAVYYCAADRWYITLSIDATISYDYWGQGTQVTVSS,low polyreactivity
4,QVHLVDSGGGLVQAGGRLRLSCPASVSTFYYYVKGWYRQPPGKERELVAAISSGCHTNYADSVKGRFTISRDNAKNTVYLQMNSLIPEDSAVYYCAAKPRRGTLLRYGYWGQGTQVTVSS,high polyreactivity
5,QVQLVESGGGLVQAGGSLRLSCAASGRIFGYNVMGWYRQAPGKERELVAAISYSGGSTYYADSVKGRFTISRDNAKNTVYLQMNSLKPEDTAVYYCNAGYRGSSKYNYWGQGTQVTVSS,high polyreactivity
6,QVQLVESGGGLVQAGGSLRLSSAASGRIFRRNTMGWYRQAPGKERELVAAITYSGGSTYYADSVKGRFTISRDNAKNTVYLQMNSLKPEDTAVYYCAADTGFYYWYDYWGQGTQVTVSS,low polyreactivity
7,QVQLGESGGGLVQAGGSLRLSCAASGTIYGYVMGWYRQAPGKERVLVAAISSSGGSTYYADSVKGRFTISRDNAKNTVYLQMNSLKPEDTAVYYCAKGLTYARRYGYWGQRTQVTVSS,high polyreactivity
8,QVQLEESGGGLVQAGGSLRLSCAASGYNFVYYAMGWYRQAPGKERELDAAITGRGGSTYYADSVKGRFTISRDNAKNTVYLQMNSLKPEDTAVYYCAKKRIGPVKQFGRDYNYWGQGTQVTVSS,high polyreactivity
9,QVQLVESGGGLVQAGGSLRLSCAASGSTFEAYAMGWYRQAPGKERELVAAITRGSTYYADSVKGRFTISRDNAKNTVYLQMNSLKPEDTAVYYCNVDYSYNSGYDYWGQGTQVTVSS,high polyreactivity
10,QVQLVESGGGLVQAGGSLRLSCAASGSIFGYYAMGWYRQAPGKERELVAAISYRGGSTYYADSVKGRFTISRDNAKNTVYLQMNSLKPEDTAVYYCNAPFLGAHHYGYEYWGQGTQVTVSS,high polyreactivity
11,QVQLVESGGGLVQAGGSLRLSCAASGIILYVNAMGCYRQAPGKEREFVAAISWGGGSTYYADSVKGRFTISRDNAKNTVYLQMNSLKREDTAVYYCAAEFWSGYPTYTYDYWGQGTQVTVSS,low polyreactivity
12,QVQLVESGGGLVQAGGSLRLSCAASGSIFGYYAMGWYRPAPGKERQLVAAIDSRGGSTYYADSVKGRFTISRDYEKNTVYLQMNSLKPEDTAVYYWAARLRYPRRGQGDNYWGQGTQVTVSS,low polyreactivity
13,QVQLVESGGGLVQAGGSLRLSCAASGFIFRTYAMGWYRQAPGKERELVAAISRGGGTTYYADSVKGRFTISRDNAKNTVYFQMNSLKPEDTAFYYCAAYSQYLKRDYWGQGTQVTVSS,high polyreactivity
14,QVHLVESGGGLVQAGGSLRLSCAASGFTFSYYAMGWYRQAPGKERELVAVISDRGGITYYADSVKGRFTISRDNAKNTVYLQMISLKPEDTAVYYCAAQNPRYNYRYYYWGQGTQVTVSS,low polyreactivity
15,QVQLQESGGGLVQAGGSLGCEASGNISTRSEMGWYRQAPGKEREFVATINSGGITNYADSVKGRFTISRDNAKNTVYLRMNSLKPEDTAVYYRAVYGYFSDPYDYWGQGTQVTVSS,low polyreactivity
16,QVQLVESGGGLVQAGGSLRLSCAASGSTSGIYAMGWSRQAPGKERELVAAIDTSGGSTYADSVKGRFTISRDNAKNTVYLQMNSLKPEATAVYYCARTWGLRYRWSYGRSRYNFWGQGTQVTVSS,low polyreactivity
17,QVQLVESGGGLVQAGGSLRLSCAASGSIFEYYVMGWYRQAPGKERELVAAISYSGDSTYYADSVKGRFTISRDNAKNTVYLQMNSLKPEDTAVYYCAAQYTRVIPPGYDYWGQGTQVTVSS,high polyreactivity
18,QVQLVESGGGLVQAGGSLRLSCAASGSIFGYYAMGWYRQAPGKERELVAAIDSGGVSTYYADSVKGRFTISRDIAKNTVYLQMNSLKAEDTAVYYCAKRGPVRKTAYDYWGQGTQVTVSS,low polyreactivity
19,QVQLVESGGGLVQAGGSLRLRCAASGITFSWYDMGWYRQAPGKERELVAAISWSGGRTYYADSVKGRFTISRDNAKNTVYLQMNSLKPEDTAVYYCNAVGVGYVGYLYGYLGQGTQVTVSS,high polyreactivity
20,QVQLVESGGGLVQAGGSLRLSCAASGIIFYYYDMGWYRQAPGKERELVAAISWGAGDTYYADSVKGRFTISRDNAKNTVYLQMNSLKPEDTAVYYCAAEFSRSDYQEYDYWGQGTQVTVSS,low polyreactivity
21,QVQLVESGGVLVQAGGSLRLSCAASGSIFNYYAMGWYRQAPGKERELVAGITTSGGSTYYADSVKARFTISRDNEKNSVYLQMNSLTPEDTAVYYCAAYDYISSTYFLDDYWGQGTQVTVSS,low polyreactivity
22,QVQLVESGGGLVQAGGSLRLSCAASGIIFWTYTMGWYRQAPGKERELVAAISSGGSTNYADSVKGRFTISRDNAKNTVYLQMNSLKPEDTAVYYCAKRRQYQRSYNYWGQGTQVTVSS,low polyreactivity
